Holding throughout (settings): both partners purified
The target in assay [1] is plasminogen activator inhibitor-1 (PAI-1), immobilised on ELISA plates (UniProt P05121 24-402). The assay is described as follows: ELISA; plates coated with 2 μg/mL integrin α5β1, PAI-1 or PAI-1-uPA complex; incubated with B-Vi45-51 or Vi (dose-dependent) or 100 nM Vi mutants; horseradish peroxidase antibodies and TMB. For orientation: ELISA stands for enzyme-linked immunosorbent assay.

Assay [2] has as its target T1, PAI-1-uPA complex, immobilised on ELISA plates (UniProt P05121 24-402; P00749 21-431).
T1 construct: the methods print '(37 °C, 10 min)' after the complex
The description is as above.

Assay [3] addresses T2, recombinant human integrin α5β1 (human, UniProt P08648 42-995; P05556 21-728).
T2 construct: integrin α5 subunit, human, recombinant; integrin β1 subunit, human, recombinant; No catalogue number is printed; also called α5β1 integrin; source: bought: Bio-Techne
The assay is described as above.

In assay [4] the target is T2, recombinant human integrin α5β1. Nature of the assay: SPR; B-Vi45-51 (100 nM) immobilised on a streptavidin SA chip (Biacore 1K); integrin α5β1 injected at 30 μl/min, 60 s association/dissociation; HBS-P, 150 mM NaCl, 1 mM MnCl2, pH 7.4; 1:1 model (legend: steady-state). (In general: In SPR one partner is held on a chip, and binding of the other changes the refractive index at the surface.)

No end group written: not given here.

T2 sequence (P08648 42-995, chain 1 of 2): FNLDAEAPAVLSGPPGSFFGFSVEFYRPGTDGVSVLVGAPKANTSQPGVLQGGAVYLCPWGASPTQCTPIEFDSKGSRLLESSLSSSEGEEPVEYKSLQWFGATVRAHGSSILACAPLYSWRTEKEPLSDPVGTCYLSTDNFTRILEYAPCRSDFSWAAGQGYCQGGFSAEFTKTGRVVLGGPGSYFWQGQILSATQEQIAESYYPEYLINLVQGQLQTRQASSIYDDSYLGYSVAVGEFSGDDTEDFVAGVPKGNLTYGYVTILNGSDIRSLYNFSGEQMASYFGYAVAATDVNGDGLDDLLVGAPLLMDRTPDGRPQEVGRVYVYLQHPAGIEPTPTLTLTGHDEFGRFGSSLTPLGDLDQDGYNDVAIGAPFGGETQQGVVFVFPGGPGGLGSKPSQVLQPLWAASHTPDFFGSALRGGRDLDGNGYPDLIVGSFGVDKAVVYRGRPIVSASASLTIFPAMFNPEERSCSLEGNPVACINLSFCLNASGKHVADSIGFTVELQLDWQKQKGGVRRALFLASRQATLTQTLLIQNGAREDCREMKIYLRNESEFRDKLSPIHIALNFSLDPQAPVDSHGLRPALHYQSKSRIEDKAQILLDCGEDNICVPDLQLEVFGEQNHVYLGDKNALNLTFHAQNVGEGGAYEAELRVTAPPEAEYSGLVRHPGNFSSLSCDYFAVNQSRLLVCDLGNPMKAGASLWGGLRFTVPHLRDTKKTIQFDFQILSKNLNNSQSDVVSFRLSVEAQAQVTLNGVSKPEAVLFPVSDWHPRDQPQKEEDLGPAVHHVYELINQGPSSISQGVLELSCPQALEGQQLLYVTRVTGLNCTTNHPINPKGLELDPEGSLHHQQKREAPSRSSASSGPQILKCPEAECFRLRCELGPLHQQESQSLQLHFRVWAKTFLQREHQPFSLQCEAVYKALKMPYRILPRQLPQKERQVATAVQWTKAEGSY
T2 sequence (P05556 21-728, chain 2 of 2): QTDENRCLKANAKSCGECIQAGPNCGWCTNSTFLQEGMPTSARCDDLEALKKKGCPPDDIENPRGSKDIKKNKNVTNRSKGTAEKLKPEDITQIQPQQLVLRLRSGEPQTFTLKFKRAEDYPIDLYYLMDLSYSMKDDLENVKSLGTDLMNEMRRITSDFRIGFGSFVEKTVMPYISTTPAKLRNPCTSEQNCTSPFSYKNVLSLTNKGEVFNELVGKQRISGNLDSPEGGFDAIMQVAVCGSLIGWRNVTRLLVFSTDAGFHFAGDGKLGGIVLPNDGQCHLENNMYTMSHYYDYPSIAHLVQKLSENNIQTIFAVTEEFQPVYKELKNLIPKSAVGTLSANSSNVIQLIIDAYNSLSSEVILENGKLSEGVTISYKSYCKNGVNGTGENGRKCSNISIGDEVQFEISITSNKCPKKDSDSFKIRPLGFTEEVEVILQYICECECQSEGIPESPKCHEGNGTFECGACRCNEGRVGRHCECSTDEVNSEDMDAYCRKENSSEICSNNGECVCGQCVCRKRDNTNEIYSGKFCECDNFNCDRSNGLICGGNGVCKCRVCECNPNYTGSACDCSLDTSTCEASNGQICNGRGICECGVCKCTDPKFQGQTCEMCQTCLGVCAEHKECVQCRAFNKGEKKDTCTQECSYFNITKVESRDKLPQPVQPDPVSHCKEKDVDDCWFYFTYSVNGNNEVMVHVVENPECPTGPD
T1 sequence (P05121 24-402, chain 1 of 2, other chains not shown): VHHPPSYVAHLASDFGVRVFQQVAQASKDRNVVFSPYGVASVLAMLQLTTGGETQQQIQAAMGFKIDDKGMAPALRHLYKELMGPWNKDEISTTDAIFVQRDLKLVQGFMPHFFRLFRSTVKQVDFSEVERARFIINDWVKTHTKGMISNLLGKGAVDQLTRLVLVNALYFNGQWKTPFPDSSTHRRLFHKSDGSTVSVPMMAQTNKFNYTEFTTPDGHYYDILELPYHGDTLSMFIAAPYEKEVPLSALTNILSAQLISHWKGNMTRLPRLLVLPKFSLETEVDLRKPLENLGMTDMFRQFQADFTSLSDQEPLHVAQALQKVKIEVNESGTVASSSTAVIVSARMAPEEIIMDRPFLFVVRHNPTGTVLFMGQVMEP
Chain of plasminogen activator inhibitor-1 (PAI-1), immobilised on ELISA plates (P05121 24-402): as the sequence (P05121 24-402, chain 1 of 2, other chains not shown) above

B1: vasoinhibin (Vi) (domain or fragment, UniProt P01236 29-151, looked up)
chain: LPICPGGAARCQVTLRDLFDRAVVLSHYIHNLSSEMFSEFDKRYTHGRGFITKAINSCHTSSLATPEDKEQAQQMNQKDFLSLIVSILRSWNEPLYHLVTEVRGMQEAPEAILSKAVEIEEQT
notes: vasoinhibin, a fragment of the hormone prolactin; also called 16K prolactin
In the case of B1, the dissociation constant (Kd) in assay [1] turned out to be 528 nM; in assay [2], 406 nM; in assay [3], 383 nM.

B2: biotinylated peptide comprising residues 45 to 51 of vasoinhibin (B-Vi45-51) (peptide, UniProt P01236 73-79, looked up)
peptide: THGRGFI
modifications: also: biotin, position not given here
notes: vasoinhibin (fragment of prolactin), residues 45 to 51, holds the HGR motif (H46, R48 printed); also called biotinylated Vi45-51; source: synthetic peptide, bought: GenScript
Take B2: the Kd in assay [4] stood at 2740 nM.

In general, Kd refers to the equilibrium constant for the complex coming apart.

The values above are taken from PMC12795676, “Integrin α5β1 mediates the inhibitory effects of vasoinhibin on angiogenesis and vascular permeability [image fx1.gif]” (The Journal of Biological Chemistry, 2025).
